{"source": "paper PMC6761149", "biological_target": "Q8DLC1", "test": "SAXS; ESRF BM29, 10 °C, 20 mM Tris/HCl pH 7.5, 500 mM NaCl, 20% (v/v) glycerol; dark holoprotein (NADPH, Pchlide) at 0.65 mg ml^-1; monomer content from I(0)", "conditions": "other: SAXS", "data": [{"protein": "light-dependent protochlorophyllide oxidoreductase of Thermosynechococcus elongatus BP-1 (TeLPOR) (protein) MSDQPRPTVIITGASSGVGLYATKALANRGWHVIMACRNLEKAEQAAKNLQIPPEAYTILHLDLSSLASVRGFVESFRALNRPLRALVCNAAVYYPLLKEPIYSVDGYEITVATNHLGHFLLINLLLEDLKNSPESDKRLVILGTVTANRKELGGKIPIPAPPDLGNLEGFEKGFKKPIAMINGKPFKSGKAYKDSKLCNMLTARELHRRFHESTGIVFNSLYPGCVADTPLFRHHFPLFQKLFPLFQKKITGGYVSQELAGERVAMVVADPEFRQSGVHWSWGNRQKEGRKAFVQELSAEASDEQKARRLWELSEKLVGLA", "values": [{"measurement": "monomer content from I(0), with NADPH and Pchlide", "result": "monomer content from I(0): 85.9%"}]}]}
